According to patent US20110086015:

Legend:
[1] = test system: OZ137 CF877R zinc finger array (synthetic); assay: one_hybrid; conditions: bacterial two-hybrid lacZ; SD 0.04
[2] = test system: OZ142 CF877R zinc finger array (synthetic); assay: one_hybrid; conditions: bacterial two-hybrid lacZ; SD 0.16
[3] = test system: OZ121 CF877R zinc finger array (synthetic); assay: one_hybrid; conditions: bacterial two-hybrid lacZ; SD 0.19
[4] = test system: OZ122 CF877R zinc finger array (synthetic); assay: one_hybrid; conditions: bacterial two-hybrid lacZ; SD 0.59
[5] = test system: OZ123 CF877R zinc finger array (synthetic); assay: one_hybrid; conditions: bacterial two-hybrid lacZ; SD 0.63
[6] = test system: OZ138 CF877R zinc finger array (synthetic); assay: one_hybrid; conditions: bacterial two-hybrid lacZ; SD 0.41
[7] = test system: OZ131 CF877R zinc finger array (synthetic); assay: one_hybrid; conditions: bacterial two-hybrid lacZ; SD 0.12
[8] = test system: OZ133 CF877R zinc finger array (synthetic); assay: one_hybrid; conditions: bacterial two-hybrid lacZ; SD 0.05
[9] = test system: OZ120 CF877R zinc finger array (synthetic); assay: one_hybrid; conditions: bacterial two-hybrid lacZ; SD 0.01
[10] = test system: OZ126 CF877R zinc finger array (synthetic); assay: one_hybrid; conditions: bacterial two-hybrid lacZ; SD 0.28
[11] = test system: OZ129 CF877R zinc finger array (synthetic); assay: one_hybrid; conditions: bacterial two-hybrid lacZ; SD 0.07
[12] = test system: OZ124 CF877R zinc finger array (synthetic); assay: one_hybrid; conditions: bacterial two-hybrid lacZ; SD 0.20
[13] = test system: OZ128 CF877R zinc finger array (synthetic); assay: one_hybrid; conditions: bacterial two-hybrid lacZ; SD 0.07
[14] = test system: OZ139 CF877R zinc finger array (synthetic); assay: one_hybrid; conditions: bacterial two-hybrid lacZ; SD 0.03
[15] = test system: OZ125 CF877R zinc finger array (synthetic); assay: one_hybrid; conditions: bacterial two-hybrid lacZ; SD 0.85
[16] = test system: OZ132 CF877R zinc finger array (synthetic); assay: one_hybrid; conditions: bacterial two-hybrid lacZ; SD 0.05
[17] = test system: OZ130 CF877R zinc finger array (synthetic); assay: one_hybrid; conditions: bacterial two-hybrid lacZ; SD 0.22
[18] = test system: OZ136 CF877R zinc finger array (synthetic); assay: one_hybrid; conditions: bacterial two-hybrid lacZ; SD 0.06
[19] = test system: OZ119 CF877R zinc finger array (synthetic); assay: one_hybrid; conditions: bacterial two-hybrid lacZ; SD 0.35; site triplets appear printed in F1-F2-F3 order, so 5'-3' triplet order may be reversed
[20] = test system: OZ127 CF877R zinc finger array (synthetic); assay: one_hybrid; conditions: bacterial two-hybrid lacZ; SD 0.02
[21] = test system: OZ134 CF877R zinc finger array (synthetic); assay: one_hybrid; conditions: bacterial two-hybrid lacZ; SD 0.19
[22] = test system: OZ135 CF877R zinc finger array (synthetic); assay: one_hybrid; conditions: bacterial two-hybrid lacZ; SD 0.07
[23] = test system: OZ141 CF877R zinc finger array (synthetic); assay: one_hybrid; conditions: bacterial two-hybrid lacZ; SD 0.08
[24] = test system: OZ140 CF877R zinc finger array (synthetic); assay: one_hybrid; conditions: bacterial two-hybrid lacZ; SD 0.48
[25] = test system: OZ112 CF877L zinc finger array (synthetic); assay: one_hybrid; conditions: bacterial two-hybrid lacZ; SD 0.55
[26] = test system: OZ117 CF877L zinc finger array (synthetic); assay: one_hybrid; conditions: bacterial two-hybrid lacZ; SD 0.33
[27] = test system: OZ113 CF877L zinc finger array (synthetic); assay: one_hybrid; conditions: bacterial two-hybrid lacZ; SD 0.20
[28] = test system: OZ115 CF877L zinc finger array (synthetic); assay: one_hybrid; conditions: bacterial two-hybrid lacZ; SD 0.12
[29] = test system: OZ118 CF877L zinc finger array (synthetic); assay: one_hybrid; conditions: bacterial two-hybrid lacZ; SD 0.08
[30] = test system: OZ108 CF877L zinc finger array (synthetic); assay: one_hybrid; conditions: bacterial two-hybrid lacZ; SD 0.51
[31] = test system: OZ114 CF877L zinc finger array (synthetic); assay: one_hybrid; conditions: bacterial two-hybrid lacZ; SD 0.18
[32] = test system: OZ109 CF877L zinc finger array (synthetic); assay: one_hybrid; conditions: bacterial two-hybrid lacZ; SD 0.20
[33] = test system: OZ110 CF877L zinc finger array (synthetic); assay: one_hybrid; conditions: bacterial two-hybrid lacZ; SD 0.15
[34] = test system: OZ107 CF877L zinc finger array (synthetic); assay: one_hybrid; conditions: bacterial two-hybrid lacZ; SD 0.58; site triplets appear printed in F1-F2-F3 order, so 5'-3' triplet order may be reversed
[35] = test system: OZ116 CF877L zinc finger array (synthetic); assay: one_hybrid; conditions: bacterial two-hybrid lacZ; SD 0.38
[36] = test system: OZ111 CF877L zinc finger array (synthetic); assay: one_hybrid; conditions: bacterial two-hybrid lacZ; SD 1.90
[37] = test system: T1, CF877 left ZFN (synthetic); assay: cell_activity; conditions: as pair with right ZFN, K562 nucleofection; up to ~29% with adenovirus in CFBE41o-; exact clone of pair not stated
T1 sequence: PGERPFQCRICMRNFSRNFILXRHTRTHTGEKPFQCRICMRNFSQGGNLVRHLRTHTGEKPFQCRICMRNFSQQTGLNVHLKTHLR

“GAGTGGTTA (double strand) [CF877R half-site]” gave a binding signal (fold activation) [1] of 2.26, a binding signal (fold activation) [2] of 2.73 and a binding signal (fold activation) [3] of 2.91. It also gave a binding signal (fold activation) [4] of 4.72, a binding signal (fold activation) [5] of 5.03 and a binding signal (fold activation) [6] of 2.52. It also gave a binding signal (fold activation) [7] of 2.08, a binding signal (fold activation) [8] of 3.24 and a binding signal (fold activation) [9] of 2.53. It also gave a binding signal (fold activation) [10] of 2.57, a binding signal (fold activation) [11] of 2.55 and a binding signal (fold activation) [12] of 4.41. For the same sequence, the binding signal (fold activation) [13] was 2.12, the binding signal (fold activation) [14] was 2.74 and the binding signal (fold activation) [15] was 4. The binding signal (fold activation) [16] was 1.28, the binding signal (fold activation) [17] was 2.47 and the binding signal (fold activation) [18] was 2.16. The binding signal (fold activation) [19] was 2.78, the binding signal (fold activation) [20] was 1.6 and the binding signal (fold activation) [21] was 3.71. It also gave a binding signal (fold activation) [22] of 2.25, a binding signal (fold activation) [23] of 2.87 and a binding signal (fold activation) [24] of 2.99.
Sequence “GTGGAATTA (double strand) [CF877L half-site]” has a binding signal (fold activation) [25] of 2.52, a binding signal (fold activation) [26] of 3.87 and a binding signal (fold activation) [27] of 1.61. It also gave a binding signal (fold activation) [28] of 2.71, a binding signal (fold activation) [29] of 3.55 and a binding signal (fold activation) [30] of 2.31. It also gave a binding signal (fold activation) [31] of 2.95, a binding signal (fold activation) [32] of 2.83 and a binding signal (fold activation) [33] of 1.61. The binding signal (fold activation) [34] was 1.92, the binding signal (fold activation) [35] was 2.53 and the binding signal (fold activation) [36] was 2.2. For the same sequence, the activity [37] was 1.2 % indels.
